Results from doi:10.1101/2025.11.02.686180.
Like-named read-outs stand apart in the source and are kept apart here.

Columns and labels:
[1] = molecular target: T1, thrombin (Tb) (UniProt P00734;P00734 328-363;364-622); assay: thrombin 0.02-20 pg/mL in water
[2] = molecular target: T2, Tau441 (longest isoform of tau) (human, UniProt P10636-8 1-441); assay: competition
[3] = molecular target: T2, Tau441 (longest isoform of tau); assay: competition; remark: listed apart in the source
[4] = molecular target: T3, SARS-CoV-2 nucleocapsid protein (NP) (SARS-CoV-2, UniProt P0DTC9 1-419); assay: MST
[5] = molecular target: T1, thrombin (Tb); assay: 0.1 ng/mL thrombin
[6] = molecular target: T3, SARS-CoV-2 nucleocapsid protein (NP); assay: MST; remark: listed apart in the source

B1: thrombin aptamer 29 nt (ssDNA)
DNA: AGTCCGTGGTAGGGCAGGTTGGGGTGACT
modifications: 3' C3 spacer
- binding result [1]: binds

B2: Tau aptamer (core) (ssDNA)
DNA: CCTGTCAGGTCTTTGACGAGGCTTTTCTTC
modifications: 3' C3 spacer
- binding result [2]: binds

B3: N9-Apt (ssDNA)
DNA: CGCTTACGACAATATTCCTTAGGGGCACCGCTACATTGACACATCCAGC
modifications: 3' C3 spacer
- binding result [3]: no binding
- binding signal [4]: > 5 fold affinity vs Nor-Apt
- binding result [5]: no binding

B4: Nor-Apt (ssDNA)
DNA: GCTGGATGTCGCTTACGACAATATTCCTTAGGGGCACCGCTACATTGACACATCCAGC
modifications: 3' C3 spacer
- binding result [6]: binds
